Reference: patent publication US20240117018A1

Columns and labels:
Assay in all cases: cell-based or functional assay
[1] = target: Env of HIV-1 pseudovirus Q259.d2.17 (HIV-1)
[2] = target: Env of HIV-1 pseudovirus RHPA4259.7 (HIV-1)
[3] = target: Env of HIV-1 pseudovirus SC05_8C11_2344 (HIV-1)
[4] = target: Env of HIV-1 pseudovirus Q842.d12 (HIV-1)
[5] = target: Env of HIV-1 pseudovirus T257-31 (HIV-1)
[6] = target: Env of HIV-1 pseudovirus CAAN5342.A2 (HIV-1)
[7] = target: Env of HIV-1 pseudovirus CNE20 (HIV-1)
[8] = target: Env of HIV-1 pseudovirus WEAU_d15_410_787 (HIV-1)
[9] = target: Env of HIV-1 pseudovirus 6240_08_TA5_4622 (HIV-1)
[10] = target: Env of HIV-1 pseudovirus QH0692.42 (HIV-1)
[11] = target: Env of HIV-1 pseudovirus 246F C1G (HIV-1)
[12] = target: Env of HIV-1 pseudovirus Q769.d22 (HIV-1)
[13] = target: HIV-1 Env pseudovirus Du156.12 (HIV-1)
[14] = target: HIV-1 Env pseudovirus 249M B10 (HIV-1)
[15] = target: HIV-1 Env pseudovirus Ce704809221_1B3 (HIV-1)
[16] = target: HIV-1 Env pseudovirus CAAN5342.A2 (HIV-1)
[17] = target: HIV-1 Env pseudovirus 62357_14_D3_4589 (HIV-1)
[18] = target: HIV-1 Env pseudovirus CAP210.2.00.E8 (HIV-1)
[19] = target: HIV-1 Env pseudovirus CNE52 (HIV-1)
[20] = target: HIV-1 Env pseudovirus Ce2060_G9 (HIV-1)
[21] = target: HIV-1 Env pseudovirus ZM249M.PL1 (HIV-1)
[22] = target: HIV-1 Env pseudovirus WITO4160.33 (HIV-1)
[23] = target: HIV-1 Env pseudovirus CNE19 (HIV-1)
[24] = target: HIV-1 Env pseudovirus ZM197M.PB7 (HIV-1)
[25] = target: HIV-1 Env pseudovirus CNE30 (HIV-1)
[26] = target: HIV-1 Env pseudovirus CNE20 (HIV-1)
[27] = target: HIV-1 Env pseudovirus AC10.0.29 (HIV-1)
[28] = target: HIV-1 Env pseudovirus QH0692.42 (HIV-1)
[29] = target: HIV-1 Env pseudovirus CNE21 (HIV-1)
[30] = target: HIV-1 Env pseudovirus TRJO4551.58 (HIV-1)

Question: With PG9 (antibody) as the substance, how does the IC50 [1] read?
Answer: 0.029 µg/mL

Question: And the IC80 [1]?
Answer: 1.38 µg/mL

Question: What about the IC50 [2] of the same substance?
Answer: 22.6 µg/mL

Question: And the IC80 [2]?
Answer: > 50 µg/mL

Question: And the IC50 [3]?
Answer: 0.892 µg/mL

Question: What about the IC80 [3] of the same substance?
Answer: 4.28 µg/mL

Question: And the IC50 [4]?
Answer: 0.023 µg/mL

Question: What about the IC80 [4] of the same substance?
Answer: 0.081 µg/mL

Question: And the IC50 [5]?
Answer: 0.037 µg/mL

Question: What about the IC80 [5] of the same substance?
Answer: 0.124 µg/mL

Question: And the IC50 [6]?
Answer: 4.6 µg/mL

Question: What about the IC80 [6] of the same substance?
Answer: 27 µg/mL

Question: What about the IC50 [7] of the same substance?
Answer: 0.052 µg/mL

Question: And the IC80 [7]?
Answer: 0.278 µg/mL

Question: And the IC50 [8]?
Answer: 4.08 µg/mL

Question: And the IC80 [8]?
Answer: > 50 µg/mL

Question: And the IC50 [9]?
Answer: 1.75 µg/mL

Question: And the IC80 [9]?
Answer: 6.33 µg/mL

Question: And the IC50 [10]?
Answer: > 50 µg/mL

Question: And the IC80 [10]?
Answer: > 50 µg/mL

Question: What about the IC50 [11] of the same substance?
Answer: > 50 µg/mL

Question: And the IC80 [11]?
Answer: > 50 µg/mL

Question: What about the IC50 [12] of the same substance?
Answer: 0.025 µg/mL

Question: What about the IC80 [12] of the same substance?
Answer: 0.068 µg/mL

Question: How did the IC50 [13] turn out when N49P18.1 (antibody) was run?
Answer: 1.88 µg/mL

Question: And the IC80 [13]?
Answer: 6.81 µg/mL

Question: What about the MPI [13] of the same substance?
Answer: 100

Question: And the IC50 [14]?
Answer: 5.71 µg/mL

Question: What about the IC80 [14] of the same substance?
Answer: 23.1 µg/mL

Question: And the MPI [14]?
Answer: 94

Question: What about the IC50 [15] of the same substance?
Answer: 41.6 µg/mL

Question: What about the IC80 [15] of the same substance?
Answer: > 50 µg/mL

Question: What about the MPI [15] of the same substance?
Answer: 59

Question: What about the IC50 [16] of the same substance?
Answer: 16.1 µg/mL

Question: And the IC80 [16]?
Answer: 49.1 µg/mL

Question: What about the MPI [16] of the same substance?
Answer: 83

Question: What about the IC50 [17] of the same substance?
Answer: 10.4 µg/mL

Question: And the IC80 [17]?
Answer: 48 µg/mL

Question: What about the MPI [17] of the same substance?
Answer: 82

Question: What about the IC50 [18] of the same substance?
Answer: > 50 µg/mL

Question: And the IC80 [18]?
Answer: > 50 µg/mL

Question: What about the MPI [18] of the same substance?
Answer: 11

Question: And the IC50 [19]?
Answer: 2.46 µg/mL

Question: And the IC80 [19]?
Answer: 6.65 µg/mL

Question: And the MPI [19]?
Answer: 100

Question: What about the IC50 [20] of the same substance?
Answer: > 50 µg/mL

Question: What about the IC80 [20] of the same substance?
Answer: > 50 µg/mL

Question: And the MPI [20]?
Answer: 37

Question: What about the IC50 [21] of the same substance?
Answer: 4.16 µg/mL

Question: What about the IC80 [21] of the same substance?
Answer: 19.8 µg/mL

Question: And the MPI [21]?
Answer: 98

Question: What about the IC50 [22] of the same substance?
Answer: 11 µg/mL

Question: What about the IC80 [22] of the same substance?
Answer: 37.6 µg/mL

Question: What about the MPI [22] of the same substance?
Answer: 87

Question: And the IC50 [23]?
Answer: 2.34 µg/mL

Question: What about the IC80 [23] of the same substance?
Answer: 9.64 µg/mL

Question: What about the MPI [23] of the same substance?
Answer: 99

Question: What about the IC50 [24] of the same substance?
Answer: 12.5 µg/mL

Question: What about the IC80 [24] of the same substance?
Answer: 49.8 µg/mL

Question: What about the MPI [24] of the same substance?
Answer: 84

Question: What about the IC50 [25] of the same substance?
Answer: 13.1 µg/mL

Question: What about the IC80 [25] of the same substance?
Answer: 32.2 µg/mL

Question: And the MPI [25]?
Answer: 93

Question: And the IC50 [26]?
Answer: 1.33 µg/mL

Question: What about the IC80 [26] of the same substance?
Answer: 6.36 µg/mL

Question: And the MPI [26]?
Answer: 100

Question: What about the IC50 [27] of the same substance?
Answer: 20 µg/mL

Question: And the IC80 [27]?
Answer: > 50 µg/mL

Question: What about the MPI [27] of the same substance?
Answer: 71

Question: And the IC50 [28]?
Answer: > 50 µg/mL

Question: What about the IC80 [28] of the same substance?
Answer: > 50 µg/mL

Question: And the MPI [28]?
Answer: 43

Question: What about the IC50 [29] of the same substance?
Answer: 7.93 µg/mL

Question: And the IC80 [29]?
Answer: 29.2 µg/mL

Question: And the MPI [29]?
Answer: 95

Question: And the IC50 [30]?
Answer: 4.44 µg/mL

Question: What about the IC80 [30] of the same substance?
Answer: 14.7 µg/mL

Question: And the MPI [30]?
Answer: 99

Question: For 10E8 (antibody), which IC50 [1] is on record?
Answer: 4.59 µg/mL

Question: What about the IC80 [1] of the same substance?
Answer: > 10 µg/mL

Question: What about the IC50 [2] of the same substance?
Answer: 0.728 µg/mL

Question: And the IC80 [2]?
Answer: 5.28 µg/mL

Question: What about the IC50 [3] of the same substance?
Answer: 0.665 µg/mL

Question: What about the IC80 [3] of the same substance?
Answer: 2.74 µg/mL

Question: What about the IC50 [4] of the same substance?
Answer: 4.19 µg/mL

Question: What about the IC80 [4] of the same substance?
Answer: > 10 µg/mL

Question: And the IC50 [5]?
Answer: 0.88 µg/mL

Question: What about the IC80 [5] of the same substance?
Answer: 5.78 µg/mL

Question: And the IC50 [6]?
Answer: 1.28 µg/mL

Question: And the IC80 [6]?
Answer: 9.28 µg/mL

Question: And the IC50 [7]?
Answer: 1.25 µg/mL

Question: What about the IC80 [7] of the same substance?
Answer: 6.58 µg/mL

Question: What about the IC50 [8] of the same substance?
Answer: > 10 µg/mL

Question: What about the IC80 [8] of the same substance?
Answer: > 10 µg/mL

Question: And the IC50 [9]?
Answer: 0.756 µg/mL

Question: And the IC80 [9]?
Answer: 5.59 µg/mL

Question: And the IC50 [10]?
Answer: 0.442 µg/mL

Question: What about the IC80 [10] of the same substance?
Answer: 4.05 µg/mL

Question: What about the IC50 [11] of the same substance?
Answer: 2.22 µg/mL

Question: What about the IC80 [11] of the same substance?
Answer: 9.94 µg/mL

Question: What about the IC50 [12] of the same substance?
Answer: 1.67 µg/mL

Question: And the IC80 [12]?
Answer: 10 µg/mL
